Test [1] addresses vesicular stomatitis virus nucleoprotein lacking its 21 N-terminal residues (N[change]), MBP tag removed (vesicular stomatitis virus) (UniProt P03521). The test can be described thus: SEC-MALS. On the technique in general: In gel filtration, larger molecules generally elute earlier.
Test [2] shares this target. The test can be described thus: crystal structure.

In general, stoichiometry N refers to a count of units in the complex or per binding partner.

As to “P60: the first 60 amino acids of VSV phosphoprotein P, a two-amino acid linker and a C-terminal His6-tag (from UniProt P03520 1-60) (peptide)”, the stoichiometry N in test [1] is 1. Regarding “vesicular stomatitis virus nucleoprotein lacking its 21 N-terminal residues (N[change]), MBP tag removed (from UniProt P03521 22-422) (domain or fragment)”, the stoichiometry N in test [2] amounted to 10.
